Test results as given in IntAct's records for PubMed 17932490.

B1: Serine/threonine-protein kinase 4 (Homo sapiens), Q13043 (parent)
chain: METVQLRNPPRRQLKKLDEDSLTKQPEEVFDVLEKLGEGSYGSVYKAIHKETGQIVAIKQVPVESDLQEIIKEISIMQQCDSPHVVKYYGSYFKNTDLWIVMEYCGAGSVSDIIRLRNKTLTEDEIATILQSTLKGLEYLHFMRKIHRDIKAGNILLNTEGHAKLADFGVAGQLTDTMAKRNTVIGTPFWMAPEVIQEIGYNCVADIWSLGITAIEMAEGKPPYADIHPMRAIFMIPTNPPPTFRKPELWSDNFTDFVKQCLVKSPEQRATATQLLQHPFVRSAKGVSILRDLINEAMDVKLKRQESQQREVDQDDEENSEEDEMDSGTMVRAVGDEMGTVRVASTMTDGANTMIEHDDTLPSQLGTMVINAEDEEEEGTMKRRDETMQPAKPSFLEYFEQKEKENQINSFGKSVPGPLKNSSDWKIPQDGDYEFLKSWTVEDLQKRLLALDPMMEQEIEEIRQKYQSKRQPILDAIEAKKRRQQNF

Variants of: B1
Conditions: with akt1_human AKT1, P31749
Chain of akt1_human AKT1, P31749 (P31749 whole entry): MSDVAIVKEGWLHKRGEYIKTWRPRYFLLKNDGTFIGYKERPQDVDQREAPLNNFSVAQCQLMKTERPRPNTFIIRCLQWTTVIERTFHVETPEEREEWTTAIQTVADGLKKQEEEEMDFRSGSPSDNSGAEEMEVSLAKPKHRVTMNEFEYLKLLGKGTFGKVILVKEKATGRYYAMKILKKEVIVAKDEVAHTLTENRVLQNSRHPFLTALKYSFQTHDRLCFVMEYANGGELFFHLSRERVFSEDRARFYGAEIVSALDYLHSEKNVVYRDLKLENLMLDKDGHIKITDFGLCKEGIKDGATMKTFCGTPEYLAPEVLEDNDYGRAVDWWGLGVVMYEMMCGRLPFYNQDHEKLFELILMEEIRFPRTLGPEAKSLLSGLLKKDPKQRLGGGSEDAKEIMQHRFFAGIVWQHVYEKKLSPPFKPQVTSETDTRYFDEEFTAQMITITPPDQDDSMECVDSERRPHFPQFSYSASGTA

Variant | effect of a mutation on the interaction
METVQLRNPPRRQLKKLDEDSLTKQPEEVFDVLEKLGEGSYGSVYKAIHKETGQIVAIRQVPVESDLQEIIKEISIMQQCDSPHVVKYYGSYFKNTDLWIVMEYCGAGSVSDIIRLRNKTLTEDEIATILQSTLKGLEYLHFMRKIHRDIKAGNILLNTEGHAKLADFGVAGQLTDTMAKRNTVIGTPFWMAPEVIQEIGYNCVADIWSLGITAIEMAEGKPPYADIHPMRAIFMIPTNPPPTFRKPELWSDNFTDFVKQCLVKSPEQRATATQLLQHPFVRSAKGVSILRDLINEAMDVKLKRQESQQREVDQDDEENSEEDEMDSGTMVRAVGDEMGTVRVASTMTDGANTMIEHDDTLPSQLGTMVINAEDEEEEGTMKRRDETMQPAKPSFLEYFEQKEKENQINSFGKSVPGPLKNSSDWKIPQDGDYEFLKSWTVEDLQKRLLALDPMMEQEIEEIRQKYQSKRQPILDAIEAKKRRQQNF [K59R] | disrupting interaction
